Experimental data taken from paper PMC5707411.

Molecular target: full-length RSV F A2 DS-Cav1 K201N (A-chimera construct) (respiratory syncytial virus subtype A, strain A2)

B1: 5C4 IgG (antibody, V domains shown)
VH: EVQLQQSGAELVKPGASVKLSCTASGFNIKDTFFHWVKQRPEQGLEWIGRIDPADGHTKYDPKFQGKATITADTSSNTAFLQLSSLTSVDTAVYYCATTITAVVPTPYNAMDYWGQGTSVTVSS
VL: DIVLTQSPASLAVSLGQRTTISCRASESVDSFDNSFIHWYQQKPGQPPKLLIFLASSLESGVPARFSGSGSRTDFTLTIDPVEADDAATYYCQQSNEDPFTFGSGTKLEIK
  EC50 of 5C4 neutralisation of mKate-RSV A2 K201N-mutated virus on HEp-2 cells (viral F without DS-Cav1; antibody format not given): 0.41 µg/mL
